Data reported in patent US11767515B2, “Colonic organoids and methods of making and using same” (Children's Hospital Medical Center, priority 2016, dated 2023).

Experiments:
BMP signaling [1] = assay: BMP inhibition in Xenopus tropicalis embryos; assay type: in vivo; settings: DMH-1 20 pM vs DMSO
Method: BMP inhibition in frog and mouse embryos. Xenopus tropicalis embryo culture and small molecule treatments were performed as previously described (Rankin et al., 2012; Rankin et al., 2015). DMH-1 (Sigma D8946) was dissolved in DMSO, and used at final concentration of 20 pM; equal concentrations of DMSO vehicle were used on sibling embryos. Inhibitor treatment experiments were repeated twice with similar effects on the markers analyzed. For Xenopus in-situ hybridization analyses, DIG-labeled antisense RNA probes were generated using linearized full-length cDNA plasmid templates (X. tropicalis satb2 was purchased from ATCC, clone 7720194; HinDIII, T7 for probe; X. laevis satb2 was a gift for Tyler Square and Daniel Medeiros, University of Colorado-Boulder; Xbal, Sp6 for probe). Complete details describing probe synthesis and the in-situ hybridization protocol are available on Xenbase (hftp://wiki.xenbase.orq/xenwiki/index.php/Protocols).

BMP signaling [2] = assay: BMP inhibition in mouse whole embryo culture; assay type: in vivo
Method: For mouse whole embryo cultures, e7.5 embryos were cultured in a 1:1 mixture of Ham's F12 medium and whole embryo culture rat serum (Harlan Labs) containing N-2 Supplement (Invitrogen). Vessels were placed on a roller culture apparatus (BTC Engineering, Cambridge, UK) and maintained for 2 days at 37° C. and gassed with 20% 02 and 5% CO2. BMP signaling was inhibited by treatment with 5 pM DMH-1, with DMSO serving as a vehicle control.
(§1) Tissue processing, immunofluorescence and microscopy. Tissues were fixed for 1-3 hours in 4% paraformaldehyde (PFA) on ice depending on the size of the tissue. Organoids and transplant engraftments were frozen in OCT. OCT sections were blocked using donkey serum (5% serum in 1×PBS plus 0.5% Triton-X) for 30 min and incubated with primary antibody overnight at 4° C. Slides were then washed 3× with 1×PBS plus 0.5% Triton-X and incubated in secondary antibody with DAPI in blocking buffer for 2 h at room temperature. See Table 2 for a list of antibodies and respective dilutions. Slides were then washed 2× with 1×PBS plus 0.5% Triton-X followed by a final wash in 1×PBS. Coverslips were then mounted using Fluoromount-G® (SouthernBiotech). Images were captured on a Nikon A1 confocal microscope and analyzed using Imaris Imaging Software (Bitplane). For whole-mount staining, tissues were processed similarly as above and then cleared in Murray's solution. Imaging was performed with a Nikon A1 confocal microscope.
(§2) Quantification of immunofluorescence images. Image quantitation of whole embryos was done by splitting images into separated channels and then measuring pixel area using ImageJ (NIH). Pixel area was determined for each channel, the ratio between channels was determined and the ratio for control treated embryos was represented as 100. Quantitation of in vitro and in vivo grown organoids was done on sections from which images were captured as explained above. The number of CDX2, GATA4 and SATB2 positive nuclei were quantified using the spot function in [marls following calibration with human biopsy samples.

human gut tube spheroids [3] = assay: HOX/MSX2 gene expression in patterned gut tube spheroids after 3 days (RNA-seq, QPCR); assay type: cell-based
Method: (§3) Patterning midgut/hingut spheroids into HIOs and HCOs. Spheroids were collected from 24 well plate and plated in Matrigel (BD). To generate proximal HIOs, spheroids were overlayed with intestinal growth medium (Advanced DMEM/F-12, N2, B27, 15 mM HEPES, 2 mM L-glutamine, penicillin-streptomycin) supplemented with 100 ng/mL EGF (R&D) alone, or 100 ng/mL EGF with 100 ng/ml NOGGIN (R&D). To generate HCOs, spheroids were overlayed with 100 ng/mL EGF plus 100 ng/mL BMP (R&D). For SHH experiments, 1 pM SAG (Tocris), 5 pM SAG or 2.5 pM Cyclopamine (Tocris) were added to control media for initial 3 days after which RNA samples were collected. Media was changed at 3 days with only EGF being maintained in the media for all patterning conditions. Media was then changed twice weekly thereafter. HIOs and HCOs were replated in fresh Matrigel every 14 days.
(§4) RNA isolation and QPCR. RNA was extracted using Nucleospin® RNA extraction kit (Macharey-Nagel) and reverse transcribed into cDNA using Superscript VILO (Invitrogen) according to manufacturer's protocols. QPCR primers were designed using the qPrimerDepot webased tool (primerdepot.nci.nih.gov). QPCR was performed using Quantitect SYBR® Green PCR kit (Qiagen) and a QuantStudio™ 6 Flex Real-Time PCR System (Applied Biosystems).

transplanted organoids = assay: Transplantation of patterned organoids under the mouse kidney capsule; assay type: in vivo
Method: as §1

human gut tube spheroids [4] = assay: Patterning of human gut tube spheroids (pSMAD1/5/8 and SATB2 staining); assay type: cell-based; settings: spheroids treated for 12 hours; 100 ng/mL
Method: as §3, with “Media was then changed twice weekly thereafter. HIOs and HCOs were replated in fresh Matrigel every 14 days.” left out
Tissue processing, immunofluorescence and microscopy. […] Images were captured on a Nikon A1 confocal microscope and analyzed using Imaris Imaging Software (Bitplane). […]
Quantification of immunofluorescence images. Image quantitation of whole embryos was done by splitting images into separated channels and then measuring pixel area using ImageJ (NIH). Pixel area was determined for each channel, the ratio between channels was determined and the ratio for control treated embryos was represented as 100. Quantitation of in vitro and in vivo grown organoids was done on sections from which images were captured as explained above. […]

[5] = tested on: human intestinal organoids; assay: Regional markers in organoids after prolonged in vitro culture (IF, QPCR); assay type: cell-based
Method: as §3, §1, §2, §4

organoid mesenchyme = assay: Patterning markers in isolated organoid mesenchyme cultures (QPCR); assay type: cell-based, human; settings: mesenchymal cell cultures expanded for 2-3 weeks
Method: as §4

[6] = 28-day old organoids after initial 3 day treatment

CC(C)Oc1ccc(-c2cnc3c(-c4ccnc5ccccc45)cnn3c2)cc1 [DMH-1]
Satb2 expression in the hindgut and brachial arches (BMP signaling [1]): loss of Satb2 expression | Satb2 expression in the first brachial arch (BMP signaling [2]; DMH-1 treated mouse embryos): lost | Satb2 expression in the posterior gut tube (BMP signaling [2]; e7.5 mouse embryos, 48 hours of DMH-1 treatment): loss of Satb2 expression | pSmad1/5/8 levels (BMP signaling [2]; e7.5 mouse embryos, 48 hours of DMH-1 treatment, 5 µM DMH-1 vs DMSO): significant reduction | TGFI3 signaling as measured by pSmad2/3 levels (BMP signaling [2]; mouse embryos cultured in DMSO or DMH-1): no impact

CNC1CCC(N(Cc2cccc(-c3ccncc3)c2)C(=O)c2sc3ccccc3c2Cl)CC1 (stereo not shown) [SAG]
SAG-mediated activation of MSX2, HOXA13, HOXD13 relative to activation mediated by BMP2 (human gut tube spheroids [3]; 3 days): only a fraction | activation of MSX2, HOXA13 and HOXD13 (QPCR) (human gut tube spheroids [3]; SAG added to control media for initial 3 days): concentration dependent activation

B1: NOGGIN: BMP inhibitor NOGGIN (R&D), 100 ng/ml, used to generate proximal HIOs (protein, UniProt Q13253 28-232, looked up)
Noggin: QHYLHIRPAPSDNLPLVDLIEHPDPIFDPKEKDLNETLLRSLLGGHYDPGFMATSPPEDRPGGGGGAAGGAEDLAELDQLLRQRPSGAMPSEIKGLEFSEGLAQGKKQRLSKKLRRKLQMWLWSQTFCPVLYAWNDLGSRFWPRYVKVGSCFSKRSCSVPEGMVCKPSKSVHLTVLRWRCQRRGGQRCGWIPIQYPIISECKCSC
efficiency of organoid engraftment (transplanted organoids; compared with HCOs): more efficient | epithelial morphology of transplanted organoids (transplanted organoids; under the mouse kidney capsule for 6-10 weeks): formed well-defined crypts and tall villi | BMP signaling levels by nuclear pSMAD1/5/8 staining (human gut tube spheroids [4]): abolished this staining | SATB2 expression after re-patterning with NOGGIN ([5]; 3-day BMP treated spheroids shifted to NOGGIN-containing media for 3 days): a subset of organoids lost SATB2 expression | Levels of ONECUT1 (marker of proximal small intestine) [5, 6]: highest | SATB2 in the epithelium [5, 6]: absent | MUC5B staining (colon-specific goblet cell marker) ([5]; 28-day organoids): absent | goblet cells by intracellular MUC2 staining ([5]; at 28 days): rare intracellular MUC2 staining | HOXD3 expression / proximal identity of mesenchyme (organoid mesenchyme): stable proximal identity
